Results taken from PMC4824069.

Molecular target: HEY1 (UniProt Q9Y5J3)
Experiment: co-IP of Flag-DPF3a and HA-HEY1
Details: reference: wild type; sites S348

UniProt Q9Y5J3, sequence (Q9Y5J3 whole entry, looked up): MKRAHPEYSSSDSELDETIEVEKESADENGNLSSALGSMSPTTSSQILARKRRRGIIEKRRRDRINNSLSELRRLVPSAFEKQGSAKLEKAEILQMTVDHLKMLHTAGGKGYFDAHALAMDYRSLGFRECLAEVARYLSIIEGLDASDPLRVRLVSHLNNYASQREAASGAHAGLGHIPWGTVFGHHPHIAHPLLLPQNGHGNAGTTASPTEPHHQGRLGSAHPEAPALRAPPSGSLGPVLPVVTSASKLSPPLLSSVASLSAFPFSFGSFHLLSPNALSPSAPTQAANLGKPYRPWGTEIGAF

binding against the reference: weaker
Substance: DPF3a (BAF45c1) (from UniProt Q92784-2) S348A
